Test results published in patent publication US11505583B2, “Proteins for the treatment of epithelial barrier function disorders” (Second Genome, Inc., priority 2018, dated 2022).

Tests used:
[1] = Stability in storage buffer formulations by analytical SEC (Example 11); type: physicochemical
Experimental: Although SG-11 protein is very stable at high temperature, forming aggregations at 37° C. in a week could be the problem at the downstream processing stage. Deamidation of asparagine residues found by LC/MS/MS are also a risk factor. In order to improve the manufacturability of a protein comprising SEQ ID NO:3 or variants thereof, the protein depicted as SG-11 (SEQ ID NO:7) was mutated to contain the following 4 substitutions: N53S, N83S, C147V and C151S. This variant with 4 substitutions is designated as SG-11V5, provided herein as SEQ ID NO:19. The stability of purified SG-11 and SG-11V5 was tested in different storage buffer formulations. SG-11V5 (SEQ ID NO:19) has about 98.3% sequence identity to SEQ ID NO:7.
Specifically, purified SG-11 (SEQ ID NO:7) was incubated in pH 5.2 (FIGS. 15A, 15B and 15C), pH 7.0 (FIGS. 15D, 15E and 15F) and pH 8.0 (FIGS. 15G, 15H and 15I). Effect of additives was also tested at the 3 different pH conditions: 150 mM NaCl (FIGS. 15A, 15D and 15G); 150 mM NaCl and 100 mM arginine (FIGS. 15B, 15E and 15H); and 150 mM NaCl and 0.5 M sorbitol (FIGS. 15C, 15F and 15I). Stability was analyzed by analytical SEC. Arrow heads indicate the retention time of the monomeric form.
SG-11V5 (SEQ ID NO:19) was incubated in pH 5.2 (FIGS. 16A, 16B and 16C), pH 7.0 (FIGS. 16D, 16E and 16F) and pH 8.0 (FIGS. 16G, 16H and 16I). Effect of additives was also tested at the 3 different pH conditions: 150 mM NaCl (FIGS. 16A, 16D and 16G); 150 mM NaCl and 100 mM Arg (FIGS. 16B, 16E and 16H); and 150 mM NaCl and 0.5 M sorbitol (FIGS. 16C, 16F and 16I). Stability was analyzed by analytical SEC. Arrow heads indicate the retention time of the monomeric form.

[2] = Post-translational modifications after storage, LC-MS/MS, SG-11 vs SG-11V5 (Example 10); type: physicochemical; conditions: for Oxidation of M1 (MLEGEESVVYVGK): 1 mg/ml in Buffer 1 (50 mM NaPO4, pH 8, 150 mM NaCl, 10% glycerol)
Experimental: In accordance with PTMs observed when SG-11 (SEQ ID NO:9) was subjected to stress conditions (Example 11), SG-11V5 (SEQ ID NO:19) was analyzed by LC-MS/MS for post translational modifications using the methods described in Example 11, and compared with PTMs for SG-11 (SEQ ID NO:7)
For this analysis, PTMs of wildtype SG-11 (SEQ ID NO:7) and SG-11V5 (SEQ ID NO:19) were compared. In the first analysis (results provided in Table 10 below), the proteins were stored at a concentration of 1 mg/ml in Buffer 1 (50 mM NaPO4^−, pH 8, 150 mM NaCl, 10% glycerol) and stored for 2 weeks at either 4° C. or 40° C. The proteins were then treated with DTT and IAA, followed by trypsin digestion. The digested samples were then analyzed by Waters ACQUITY UPLC couples to Xevo G2-XS QTOF mass spectrometer using a Protein BEH C18 column.
In a second analysis, the SG-11 (SEQ ID NO:7) and SG-11V5 (SEQ ID NO:19) proteins were each stored at 40° C. in a variety of buffers. The storage buffer used in this experiment was 100 mM NaPO4^−, pH7, with 10% sorbitol (+Sor) or without 10% sorbitol (−Sor) and with 10% glycerol (+Gly) or without 10% glycerol (−Gly) as indicated in Table 11. […] There were also differences in levels of N137 deamidation for the two proteins with the presence of at least glycerol and also the presence of both sorbitol and glycerol resulting in large decreases in N137 deamidation.

[3] = 4° C., 2 weeks, 1 mg/ml in Buffer 1 (pH 8)
[4] = 40° C., 2 weeks, 1 mg/ml in Buffer 1 (pH 8)
[5] = 40° C., 100 mM NaPO4, pH7, +Sor (10% sorbitol) −Gly
[6] = 40° C., 100 mM NaPO4, pH7, +Sor +Gly
[7] = 40° C., 100 mM NaPO4, pH7, −Sor +Gly (10% glycerol)
[8] = 40° C., 100 mM NaPO4, pH7, −Sor −Gly

Row | Molecule | Behaviour at pH 5.2 [1] | Oxidation of M1 (MLEGEESVVYVGK) ([2]; 4° C., 2 weeks) [%] | Deamidation of N137 (ANTDVK) [2, 3] [%] | Oxidation of M1 (MLEGEESVVYVGK) ([2]; 40° C., 2 weeks) [%] | Deamidation of N137 (ANTDVK) [2, 4] [%] | Deamidation of N137 [2, 5] [%] | Oxidation of M1 [2, 5] [%] | Deamidation of N137 [2, 6] [%] | Oxidation of M1 [2, 6] [%] | Deamidation of N137 [2, 7] [%] | Oxidation of M1 [2, 7] [%] | Deamidation of N137 [2, 8] [%] | Oxidation of M1 [2, 8] [%] | further results
1 | SG-11 (SEQ ID NO:7): Recombinant SG-11 with N-terminal methionine, 233 amino acids, no N-terminal tag (protein) MLEGEESVVYVGKKGVIASLDVETLDQSYYDETELKSYVDAEVEDYTAEHGKNAVKVESLKVEDGVAKLKMKYKTPEDYTAFNGIELYQGKVVASLAAGYVYDGEFARVEEGKVVGAATKQDIYSEDDLKVAIIRANTDVKVDGEICYVSCQNVKLTGKDSVSIRDGYYLETGSVTASVDVTGQESVGTEQLSGTEQMEMTGEPVNADDTEQTEAAAGDGSFETDVYTFIVYK | precipitated | 8.9 | 1.0 | 12.5 | 0.9 | 2.6 | 12.1 | 2.5 | 27.8 | 3.0 | 38.6 | 0.9 | 20 | Aggregate formation (analytical SEC) ([1]; 100 mM arginine at pH 7.0 (150 mM NaCl), FIG. 15): greatly suppressed; Deamidation of N83 [2, 3]: 19.4%; Deamidation of N83 [2, 4]: 98.1%; Deamidation of N83 [2, 5]: 93.9%; Deamidation of N83 [2, 6]: 87.4%; Deamidation of N83 [2, 7]: 96.2%; Deamidation of N83 [2, 8]: 98.1%
2 | SG-11V5: SG-11 variant SEQ ID NO:19 comprising N53S, N83S, C147V, C151S with respect to SEQ ID NO:7 (protein) MLEGEESVVYVGKKGVIASLDVETLDQSYYDETELKSYVDAEVEDYTAEHGKSAVKVESLKVEDGVAKLKMKYKTPEDYTAFSGIELYQGKVVASLAAGYVYDGEFARVEEGKVVGAATKQDIYSEDDLKVAIIRANTDVKVDGEIVYVSSQNVKLTGKDSVSIRDGYYLETGSVTASVDVTGQESVGTEQLSGTEQMEMTGEPVNADDTEQTEAAAGDGSFETDVYTFIVYK | precipitated | 2.5 | 0.1 | 4.7 | 0.3 | 3.3 | 3.3 | 0.1 | 5.9 | 0.4 | 5.6 | 1.5 | 2.7 | Aggregation (analytical SEC) ([1]; all conditions tested: pH 5.2, 7.0, 8.0, 150 mM NaCl ± 100 mM arginine or 0.5 M sorbitol, FIG. 16): did not show large amount of aggregation; Stability compared with SG-11 ([1]; pH 7.0 and pH 8.0): improved stability; Small aggregation peak at 1.34 mL (analytical SEC) ([1]; with 100 mM arginine or 0.5 M sorbitol): suppressed
